Columns and labels:
MBP-Klf4-GFP = MBP-Klf4-GFP (Homo sapiens, UniProt O43474 1-513); experiment: EMSA; poly-d(IC) 37.5 ng; Kd value not in material; EMSA: 25 mM Tris pH 7.4, 125 mM KCl, 6% glycerol, 1 mM DTT, 0.1 mg/ml BSA, 7.5 nM Cy5-dsDNA, 37.5 ng poly-d(IC), 20 min at 4 °C; details: protein: recombinant, tags: N-terminal MBP (3C-cleavable), label: Cy5 at 3' end of strand 1 (so in the source), blunt
Klf4-GFP = Klf4-GFP (Homo sapiens, UniProt O43474 1-513); experiment: EMSA; poly-d(IC) 37.5 ng; Kd plotted in ED Fig. 2c but value not in material; EMSA: 25 mM Tris pH 7.4, 125 mM KCl, 6% glycerol, 1 mM DTT, 0.1 mg/ml BSA, 7.5 nM Cy5-dsDNA, 37.5 ng poly-d(IC), 20 min at 4 °C; details: protein: recombinant; tags: C-terminal GFP; MBP removed with 3C protease; label: Cy5 at 3' end of strand 1 (so in the source); blunt
Klf4-GFP, sequence (O43474 whole entry): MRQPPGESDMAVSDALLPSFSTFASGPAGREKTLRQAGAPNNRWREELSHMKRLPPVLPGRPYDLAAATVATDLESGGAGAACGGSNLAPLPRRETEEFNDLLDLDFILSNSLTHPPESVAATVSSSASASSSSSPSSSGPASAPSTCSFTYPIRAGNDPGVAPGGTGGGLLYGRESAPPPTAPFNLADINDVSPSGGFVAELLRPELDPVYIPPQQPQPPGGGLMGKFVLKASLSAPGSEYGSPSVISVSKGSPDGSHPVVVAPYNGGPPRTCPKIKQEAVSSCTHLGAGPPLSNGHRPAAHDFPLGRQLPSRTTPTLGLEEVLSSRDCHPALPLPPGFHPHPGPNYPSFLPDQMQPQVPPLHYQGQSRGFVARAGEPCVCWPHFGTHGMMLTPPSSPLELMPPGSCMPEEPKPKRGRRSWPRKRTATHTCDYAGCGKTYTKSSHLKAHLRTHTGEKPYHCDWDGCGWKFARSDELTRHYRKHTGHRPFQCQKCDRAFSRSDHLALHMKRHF

MBP-Klf4-GFP, sequence (O43474 whole entry): as above

B1: Klf4 specific dsDNA EMSA (dsDNA)
DNA 1: GGAGGGGTGTGGGGCTG
DNA 2: CAGCCCCACACCCCTCC
binding result (MBP-Klf4-GFP): binds | binding result (Klf4-GFP): binds

From doi:10.1101/2020.09.24.311712, “Surface condensation of a pioneer transcription factor on DNA”
